Measured values: PMC5404360, “Identification of a Novel (-)-5-Epieremophilene Synthase from Salvia miltiorrhiza via Transcriptome Mining” (Frontiers in Plant Science, 2017)
Changes are numbered by the printed parent chain.

Tests used:
Assay in all cases: GC-MS product quantification, Michaelis-Menten fit
Assay type in all cases: biochemical, Salvia miltiorrhiza
Conditions in all cases: Mg2+ (5 mM MgCl2), 25 mM HEPES pH 7.0, 5 mM DTT, 30°C, 5 min, FPP 2.3-184.6 μM
[1] = substrate: CC(C)=CCC/C(C)=C/CC/C(C)=C/CO[P@@](=O)(O)OP(=O)(O)O
Text: GC-MS product quantification, Michaelis-Menten fit on […]1

[2] = substrate: CC(C)=CCC/C(C)=C/CC/C(C)=C/CO[P@@](=O)(O)OP(=O)(O)O; remark: listed apart in the source
Text: GC-MS product quantification, Michaelis-Menten fit on […]2

[3] = substrate: CC(C)=CCC/C(C)=C/CC/C(C)=C/CO[P@@](=O)(O)OP(=O)(O)O; remark: listed apart in the source
Text: GC-MS product quantification, Michaelis-Menten fit on […]3

B1: SmSTPS1 (Salvia miltiorrhiza) (protein)
chain: MATTQAQIQRPIANFSPSLWGDQFIKNDPGAKAAEKHCKAVEELKKEVMNMITAAGSNLVEAMNLIDTLERLGISYHFEKEIDQKLKHFFNLNKDYSDESYDLYTVSLHFRLFRQHGHRISSDIFGRWIDESGKFKEGLKTDGKGLLSLYEASYLRTRGETILDDALEFATATLNSIAPHLESPLSKQVVHALIQPLHYGNPRIEAHNFISIYEENQDKNEFLLRFAKLDYNLLQMLHKEELNEVSRWWKELDLVSKLPYARDRVVECFFWAMGVYHEPQYSRARIMLTKTITMTSIIDDTYDAYGVIEELDIFTEAIERWNMEEMKKLPEYIQPFYKALLELYEQFEEELAEEGRSYAAHYAIESLKELVRSYHVEAKWFIQGYLPPFEEYLKNALITCTYCYHTTTSLLGVESAVEEDFEWLANKPKMLVAGLLICRVIDDIATYEVEKERGQSATGIESYMRDNNATIEEAVAKFFEIATDAWKDINEECLMPSPYSRDVLMRILNLERIIDVTYKGNEDGYTQPEKVLKPHIIALFVDPIKM
notes: full-length ORF, 546 aa, in pET-32a (N-terminal thioredoxin/His tag fusion, kept), E. coli Rosetta (DE3), Ni-NTA purified
Km [1]: 25.35 ± 1.88 µM | kcat [1]: 2.09 ± 0.05 s⁻¹ | kcat/Km [1]: 82700 ± 40600 M⁻¹ s⁻¹

B2: SmSTPS2 (Salvia miltiorrhiza) (protein)
chain: MATTQVEIQRPIANFSPSLWGDQFIKNDSGAKAAEKHCKAVEELKKEVMNMITAGGSNLVEAMNLIDTLERLGISYHFEKEIDQKLNHFFNLNTDYSDEFYDLYTVSLHFRLFRQHGHRISSDIFGRWIDESGKFKEGLKTDGKGLLSLYEASYLRTRGETILDDALEFATATLNSIAPHLESPLSKQVVHALIQPLHYGNPRIEAHNFISIYEENQDKNEFLLKFAKLDYNLLQMLHKEELHEVSRWWKELDLVSKLPYARDRVVECFFWAMGVYHEPQYSRARIMLTKTITMTSIIDDTYDAYGVIEELDIFTEAIERWNIEEMDRLPEYVKPFYKALLELYEQFEEELAEEGRSYAAHYAIESLKELVRSYHVEAKWFIQGYLPPFEEYLKNALITCTYCYHTTTSLLGVESAVEEDFQWLAKKPKMLVAGLLICRVIDDIATYEVEKERGQSATGIESYMRDNNATIEEAVAKFFEIATDAWKDINEECLMPSPYSRDVLMRILNLERIIDVTYKGNEDGYTQPEKVLKPHIIALFVDPIKM
notes: as for B1
Km [2]: 24.20 ± 0.84 µM | kcat [2]: 2.07 ± 0.13 s⁻¹ | kcat/Km [2]: 85600 ± 38200 M⁻¹ s⁻¹

B3: SmSTPS3 (Salvia miltiorrhiza) (protein)
chain: B2 chain with G55A, G56E, N91S, F100S
notes: as for B1
Km [3]: 10.44 ± 1.07 µM | kcat [3]: 1.53 ± 0.02 s⁻¹ | kcat/Km [3]: 148000 ± 13200 M⁻¹ s⁻¹
